The values that follow come from patent publication US20220396615A1 (NANJING GENSCRIPT BIOTECH, published 2022).

First the molecules themselves.
B1: 61G1D8 (rat) (antibody, V domains shown)
VH: EVQLLESGGGLVQPGRSMKLSCAASGFTFSSFPMAWVRQTPSKALEWVATISPSGGTSYSRDSVKGRFTISRDNANSTLCLHMDSLKSEDTATYYCLRERIYNTYFDYWGQGVMVTVSS
VL: DIRMTHSPASLSASLGETVSIECLPSEDISSDLAWYQQKPGKSPQLLIYNANTLPNGVPSRFSGSRSGAQYFLKINSLQSEDVATYFCQQYDSYPYTFGTGTKLELK
notes: Rat hybridoma clone; Made recombinantly in HEK293-6E cells as variable region + constant region and purified on protein A as IgG
B2: 53A2F9 (rat) (antibody, V domains shown)
VH: QVQLKESGPGLVQPSQTLSLTCTVSGFSLTSHTVSWIRQPPGRGLEWMGKMWSNGDTDYDSAIRSRLSITRDTSKSQVFLKINSLQTEDTAMYFCARYYFSSYGGGYFDYWGQGVMVTVSS
VL: DTVLTQSPALAVSLGQRVTISCRASKSVSTYMHWYQQKSGQQPKLLIYSASNLESGVPSRFSGSGSGTDFTLTIDPVEADDIANYYCQQSDELPDTFGAGTKLELK
notes: as for B1
B3: 41A10B8 (antibody, V domains shown)
VH: EVKLEESGGGLVQPGGSMKLSCAASGFTFSDAWMDWVRQSPDKGLEWVAEIRSKTYHPATYYTKSVRGRFTISRDDSKSSVYLQMNNLGAEDTGIYYCTRPRYYGGYFDYWGQGTTLTVSS
VL: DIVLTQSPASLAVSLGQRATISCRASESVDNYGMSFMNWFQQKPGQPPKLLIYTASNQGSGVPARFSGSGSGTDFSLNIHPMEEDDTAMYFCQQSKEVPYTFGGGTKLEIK
notes: Mouse hybridoma clone; Made recombinantly in HEK293-6E cells as variable region + constant region and purified on protein A as IgG
B4: 49F10H6 (antibody, V domains shown)
VH: QVQLQQPGAELVKPGASVKMSCKASGYTFTNYIIHWIKQTPGQGLEWIGAIYPGNGDTSYSQKFKDKATLTADRSSSTAYMQLSSLTSEDSAVYYCARGDAGYSAWFAYWGQGTLVTVSA
VL: NIVLTQSPASLAVSLGQRATISCSASESVDSYGNNFMHWYQQRPGQPPKLLIYLASKLESGVPARFSGSGSRTEFTLTIDPVEAEDAATYYCQQNNEDPLTFGAGTKLELK
notes: as for B3
B5: 23A9H3 (antibody, V domains shown)
VH: QVQLQQSGAELAKPGASVKMSCKTSGYTFTNYWMHWVKQRPGQGLEWIGYVIPSTGYTDYNQSFKDKATLTADKSSNTAYMQVNSLTSEDSAVYYCASLLPGFAYWGQGTLVTVSA
VL: DVVMTQTPLSLPVSLGDQASISCRSSQSLVDSNGNTYLHWYLQKPGQSPKLLIYKVSNRFSGVPDRFSGSGSGTDFTLKISRVEAEDLGVYFCSQSTHVPPTFGGGTKLEIK
notes: as for B3
B6: 29D6B5 (antibody, V domains shown)
VH: QVQLQQSGAELAEPGASVKMSCKASGYNFNNYWMHWVKQGPGQGLEWIGYIDPRTASIYYNQKFKDKATLTADKSSSTAYMQLSSLTSEDSAVYYCARILYGKYDVWGAGTTVIVSS
VL: B5 VL with M4L, D17N, L51V, Y54H
notes: as for B3

Positions count from the first letter of the chain named. A value given as a limit tells only on which side of the number the result lay.

One assay addresses T1, Tag-free human IL6 recombinant protein (GenScript, Cat. No. Z03034) (human, UniProt P05231 30-212). Description: cell-based or functional assay.
For the molecule B1, the “inhibitory IC50, IL6-dependent TF-1 cell proliferation” value was found to be 4.54 µg/mL.
With B2, the “inhibitory IC50, IL6-dependent TF-1 cell proliferation” value worked out at 3.95 µg/mL.

For a further assay, the target named is T1, Tag-free human IL6 recombinant protein …. Description: indirect ELISA, IL6 coated at 0.5 µg/ml, antibody titrated. How it is done:
The purified antibodies were evaluated for the binding ability to IL6 by indirect ELISA. The ELISA plate (Nunc) was coated with 0.5 μg/ml recombinant IL6 protein in PBS at 100 μl/well at 4° C. overnight. The plate was washed with PBS-T (0.05% Tween) and was blocked with PBST containing 1% BSA at 200 μl/well at 37° C. for 0.5 h. The blocking solution was then discarded. 100 μl 10 μg/ml purified antibody was added to the first well, and 3-fold gradient dilution was performed for 11 test concentration gradients in total. Incubation was then performed at room temperature for 1 h. The plate was washed with PBST for three times and incubated with horseradish peroxidase-conjugated goat anti-mouse/rat IgG (Fab-specific) (GenScript) at 100 μl/well at 37° C. for 0.5 h. The plate was washed with PBST for five times, and TMB chromogenic solution (GenScript) was then added and incubation was performed in dark for 15 min at room temperature. The reaction was stopped by adding 50 μl 1M HCl stop solution (Sigma). The plate was read at 450 nm by a microplate reader. The binding ability of the clones 8H10B7E6, 23A9H3, 29D6B5, 41A10B8, 49F10H6, 53A2F9 (rat), and 61G1D8 (rat) for recombinant protein IL6 was shown in FIG. 3.
A word on the EC50: it is the midpoint of the concentration-response curve. As to B1, the EC50 is below 0.025 µg/mL.
Same read-out and setting: in the case of B3 it was below 0.025 µg/mL; in that of B2, 0.04 nM; in that of B4, below 0.025 µg/mL.
On to B5, for which the EC50 is below 0.025 µg/mL.
On the same count and under the same terms, the figure for B6 is below 0.025 µg/mL.
